Results reported in patent publication US20190292245A1 (published 2019).

Key:
[1] = target: T1, tauΔ2-18 (UniProt P10636-8 1-441); assay: Western blot
T1 construct: Deletion of residues 2-18; also called tau that lacks 2-18 domain; recombinant tauΔ2-18

[2] = target: T1, tauΔ2-18; assay: blot

T1 sequence (P10636 other isoform, or with tags, fused parts or gaps mutant limits assumed): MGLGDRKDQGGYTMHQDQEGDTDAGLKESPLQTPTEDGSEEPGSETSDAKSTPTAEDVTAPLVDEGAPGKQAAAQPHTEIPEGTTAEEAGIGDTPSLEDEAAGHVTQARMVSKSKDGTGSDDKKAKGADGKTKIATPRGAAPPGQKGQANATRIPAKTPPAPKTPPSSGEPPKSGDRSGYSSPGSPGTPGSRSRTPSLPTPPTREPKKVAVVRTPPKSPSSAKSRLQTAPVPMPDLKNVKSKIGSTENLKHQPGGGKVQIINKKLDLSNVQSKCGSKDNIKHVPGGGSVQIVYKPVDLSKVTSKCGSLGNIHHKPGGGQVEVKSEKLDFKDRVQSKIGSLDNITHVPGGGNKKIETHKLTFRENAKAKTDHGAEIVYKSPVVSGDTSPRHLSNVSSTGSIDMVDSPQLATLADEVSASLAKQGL

B1: mouse monoclonal antibody 1C9 (antibody, V domains shown)
VH: EVQLQQSGTVLARPGASVKMSCKTSGYTFTNHWMHWVKQRPGQGLEWIGAIDPGNSDTSYNQKFKGQAKLTAVTSASTAFMELSSLTNEDSAVYYCTRRDFFGGEYAVDYWGQGTSVTVSS
VL: DVVMTQTPLSLPVSLGDQASISCRSSQSLVHSNGNTYLHWYLQKPGQSPKLLIYKVSNRFSGVPDRFSGSGSGTDFTLKISRVEAEDLGVYFCSQSTHVPWTFGGGTKLEIK
notes: also called 1C9 mAb; 1C9 moAb
binding result [1]: no binding

B2: Armanezumab (antibody, V domains shown)
VH: QVQLVQSGAEVKKPGASVKVSCKASGYTFTNHWMHWVRQAPGQGLEWMGAIDPGNSDTSYNQKFKGRVTMTRDTSTSTVYMELSSLRSEDTAVYYCARRDFFGGEYAVDYWGQGTLVTVSS
VL: DIVMTQSPLSLPVTPGEPASISCRSSQSLVHSNGNTYLHWYLQKPGQSPQLLIYKVSNRFSGVPDRFSGSGSGTDFTLKISRVEAEDVGVYYCSQSTHVPWTFGQGTKVEIKR
notes: Fully humanized IgG derived from 1C9; also called humanized 1C9
binding result [2]: no binding
